Test results as given in patent US20240092931A1 (JANUX THERAPEUTICS, published 2024).

T1: Human TROP2-Biotin (human, UniProt P09758 27-274, biotinylated (site not stated))
T1 construct: The text calls the captured antigens 'biotinylated peptides'
T1 sequence (looked up): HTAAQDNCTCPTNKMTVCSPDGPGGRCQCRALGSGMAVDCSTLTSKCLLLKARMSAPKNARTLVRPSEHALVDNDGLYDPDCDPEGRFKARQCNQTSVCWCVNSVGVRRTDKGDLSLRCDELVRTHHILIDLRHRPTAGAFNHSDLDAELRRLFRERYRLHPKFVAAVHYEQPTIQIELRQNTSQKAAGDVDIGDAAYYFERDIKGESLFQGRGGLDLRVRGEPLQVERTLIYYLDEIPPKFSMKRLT

B1: TROP2 polypeptide complex Ab-3 (bispecific antibody)
light: DIQLTQSPSSLSASVGDRVSITCKASQDVSIAVAWYQQKPGKAPKLLIYSASYRYTGVPDRFSGSGSGTDFTLTISSLQPEDFAVYYCQQHYITPLTFGAGTKVEIKRTVAAPSVFIFPPSDEQLKSGTASVVCLLNNFYPREAKVQWKVDNALQSGNSQESVTEQDSKDSTYSLSSTLTLSKADYEKHKVYACEVTHQGLSSPVTKSFNRGEC
heavy: QTVVTQEPSLTVSPGGTVTLTCRSSTGAVTTSNYANWVQQKPGQAPRGLIGGTNKRAPGTPARFSGSLLGGKAALTLSGVQPEDEAEYYCALWYSNLWVFGGGTKLTVLGGGGSGGGGSGGGGSEVQLVESGGGLVQPGGSLKLSCAASGFTFNTYAMNWVRQAPGKGLEWVARIRSKYNNYATYYADSVKDRFTISRDDSKNTAYLQMNNLKTEDTAVYYCVRHGNFGNSYVSWFAYWGQGTLVTVSSGGGGSQVQLQQSGSELKKPGASVKVSCKASGYTFTNYGMNWVKQAPGQGLKWMGWINTYTGEPTYTDDFKGRFAFSLDTSVSTAYLQISSLKADDTAVYFCARGGFGSSYWYFDVWGQGSLVTVSSASTKGPSVFPLAPSSKSTSGGTAALGCLVKDYFPEPVTVSWNSGALTSGVHTFPAVLQSSGLYSLSSVVTVPSSSLGTQTYICNVNHKPSNTKVDKKVEPKSC
notes: Anti-CD3 scFv fused to the N-terminus of the anti-TROP2 Fab heavy chain
B2: TROP2 TCE polypeptide complex Ab-1 (bispecific antibody)
light: B1 light
heavy: not shown
notes: as for B1
B3: Ab-2 (bispecific antibody)
light: not shown
heavy: QVQLQQSGSELKKPGASVKVSCKASGYTFTNYGMNWVKQAPGQGLKWMGWINTYTGEPTYTDDFKGRFAFSLDTSVSTAYLQISSLKADDTAVYFCARGGFGSSYWYFDVWGQGSLVTVSSASTKGPSVFPLAPSSKSTSGGTAALGCLVKDYFPEPVTVSWNSGALTSGVHTFPAVLQSSGLYSLSSVVTVPSSSLGTQTYICNVNHKPSNTKVDKKVEPKSC
notes: Anti-CD3 scFv fused to the N-terminus of the anti-TROP2 Fab light chain

What was measured:
[1] = target: T1, Human TROP2-Biotin; assay: ELISA; 1 nM Trop2-biotin immobilized (captured on neutravidin-coated plate), Ab-3 titrated, bound complex detected with a secondary antibody, OD 450 nm
From the text: A secondary antibody was used to detect bound polypeptide complex.

[2] = target: T1, Human TROP2-Biotin; assay: BLI (Octet): 10 nM TROP2-biotin loaded on sensor, Ab-3 at 6.25-50 nM, pH 7.4
[3] = target: T1, Human TROP2-Biotin; assay: TROP2 ELISA; TROP2-biotin captured on neutravidin-coated plate, antibody titrated, detected with a secondary antibody, OD 450 nm
From the text: A secondary antibody was used to detect bound polypeptide complex. A secondary antibody was used to detect bound polypeptide complex.

[4] = target: T1, Human TROP2-Biotin; assay: BLI (Octet): 10 nM Human TROP2-Biotin loaded on sensor, Ab at 6.25-50 nM, pH 7.4

Row | Binder | EC50 [1] [nM] | Kd [2] [nM] | koff [2] [s⁻¹] | kon [2] [M⁻¹ s⁻¹] | EC50 [3] [nM] | Kd [4] [nM]
1 | B1 | 0.17 | 1.12 | 0.000223 | 199000 | – | –
2 | B2 | – | – | – | – | 0.08 | 0.466
3 | B3 | – | – | – | – | 0.09 | 0.687
